The target in the assay is clamp-stabilised KoRV envelope (Env-clamp) (koala retrovirus (KoRV-A)). The assay can be described thus: SEC + other: negative-stain electron microscopy.

Take “clamp-stabilised KoRV envelope (Env-clamp)”: the stoichiometry N (as a rule, the number of molecules, sites or subunits per partner or assembly) is 3.
